Source: the supplement of paper PMC9170038

Tested on: K4 kissing-loop RNA reporter
Experiment: apparent KD of K4 kissing-loop reporter; higher = weaker reporter binding
Conditions: Eterna round: R107
Description: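 RNA-MaP round R107: designed RNA switches with theophylline, tryptophan, arginine or FMN aptamers are transcribed on-chip within common flanks. They are titrated with a labelled K4 kissing-loop RNA reporter in RNA-MaP buffer (100 mM Tris pH 7.5, 80 mM KCl, 4 mM MgCl2), without ligand or with the indicated ligand. Median apparent KD per design.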

[1] = input ligand: theophylline 20 uM
[2] = input ligand: tryptophan 2.4 mM
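Also: bound reporter read as fluorescence of individual clusters on recovered sequencing chips by microscopy, with normalized cluster intensities fitted with a binding model.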

Sequence | apparent KD of K4 kissing-loop reporter (input ligand: FMN 200 uM) | apparent KD of K4 kissing-loop reporter (input ligand: arginine 13.2 mM) | apparent KD of K4 kissing-loop reporter (input ligand: none) | apparent KD of K4 kissing-loop reporter [1] | apparent KD of K4 kissing-loop reporter [2]
GCCGUCCGGUCGCAAGACCGGACAGCCGAUACCAGCGCGAAGGCGCGCCCUUGGCAGCGGCACCGAGUGAUGUUCGGUCAGGCGG [#2 Same State - Theophylline A Attempt #2 (HarryS)] | 179 nM | 148 nM | 173 nM | 128 nM | 166 nM
UUUUAAUAAAAGGAUACCAGUACAAAUAAAGUACAUUAAUAGUAGAGUGAUGUUCUAAAGUACCCUUGGCAGCUUAGAGUAAGUU [#17 K4 Theophylline B Exclusion] | 120 nM | 253 nM | 160 nM | 228 nM | 85.1 nM
AAAUAUUGUUACCUGUUAACAUAGGGCCAACGAGGACCGGUACGGCCGCCACUCGUCUCAUAGCGAGUGAUGUUCGCACCGCCCA | 133 nM | 58.2 nM | 76.6 nM | 123 nM | 126 nM
UGAUUAAGCAGUGAUGUUGCAAGUAAUGAUACCAGUUAAGAAGAGAACCCUUGGCAGCAUAAAGUGCGCUCUGAUGAGUGUGCUU [whbob_SS_Theo_A_w53] | 101 nM | 153 nM | 123 nM | 169 nM | 95.6 nM
GGACGACAGUCGGCCGCCACUCACAGCCGAGUGAUGUUCGGGAUUGUAGCGGAGUGAUGUUUCGCGAGGACCGGGACUGCAGUCC [Same State Typtophan B GF 27] | 200 nM | 166 nM | 184 nM | 171 nM | 141 nM
UGAUUUAACUGAAGGAGCGGCAAUUGAUAAGUAAAUAUAGUGAUGUUAUAUAAGAUAGAGAGCCAGGUAGGUCGCAGAGGUAUUU [ExArgB.N] | 173 nM | 141 nM | 154 nM | 153 nM | 141 nM
UGAUCUCAGUGAUGUUGAGAUCAAACUGAUACCAGUCAAUUUAGUGACCCUUGGCAGCAGUAUACCAAGGGAUCUUAUGAGAUCA [Theo A SS t5] | 173 nM | 152 nM | 165 nM | 162 nM | 154 nM
AAAAUAAAUAGCAGUCAUGGAGUGAUGUUCCGAGGACCGGUACGGCCGCCACUCGACCAUCAUAAGAUGGAAUGGCAAGACUGCA [#SwitchBubble 23 #K4Early] | 330 nM | 265 nM | 358 nM | 418 nM | 208 nM
GUAUAUUAGGGAGACCUAAUAUAAAUAGAAGGAGCGUAGGAAACUACAGGUAGGUCGCUAAAUAUACAGUGAUGUUGUAUAAUGG [arg a same] | 183 nM | 147 nM | 172 nM | 195 nM | 141 nM
UGACUACAUAAGGAAUAAUCCUAGUGAUGUUAGGAUAUGCUGAUAAGCAGAAGGAACGGAGAUCGAAGGAUCUCAUAUGUAGUCU [whbob_Ex_FMNA__2th194] | 275 nM | 101 nM | 103 nM | 121 nM | 103 nM
GUAUCGCUAGGAGGAUAUUUCGUUUUUCAUAGCAAUGGCUGUGCGGAGUGAUGUUCCGAUUUACCGGAAGAAGGCCUAGUGAUAC [FMN B 27] | 107 nM | 165 nM | 180 nM | 158 nM | 161 nM
CACGAUGAAUUCUCUAGGAGUGAUGUUUUUCGAGGACCGGUACGGCCGCCACUCGGACCAGGAACGUGGGAGCGGCGAAAAGACU [jbmullin] | 665 nM | 312 nM | 930 nM | 500 nM | 343 nM
GGUAGCAUGGCGGCCGCCACUACAAGUAGUGACCCAAGUGAUGUUUGGAAGCGGGUCCUAAUUGGUAGGACCGGGCCAUGCUACC | 509 nM | 502 nM | 496 nM | 401 nM | 566 nM
CGCACACUUGUUGAUACCAGAAGCCGACCGGAAACAUCAUUGAGUGAUGUUCAAGCUGUUUUCCCUUGGCAGCAAACGAGUGGUC [theeternabot_exclusion_KL_Theo_B_22] | 150 nM | 120 nM | 138 nM | 132 nM | 138 nM
UGUCAUUGGUCGGCCGCCACUAAAUAAAAGAGUGAUGUUCUUAAGACGGAUCGAAAGAUCUGUCAUAGGACCGGGACCGAUGACU [TrypBS 21 #SwitchBubble #StaticStem] | 1200 nM | 891 nM | 1080 nM | 888 nM | 667 nM
AGUGAUGUGGGAAGGAGCGGUAUAUGAAUUCAGUGAUGUUGAAGUGAUGCUGUAAUGAUGUGCCAGGUAGGUCGCCUAGAUGUUA [KL-XARG B26] | 267 nM | 161 nM | 244 nM | 171 nM | 187 nM
UUUCGUUGAAGUGAUACCAGACUUGAAAGUGAUGUUUUCCAAUAAAUUAAAUUAUUAGCUGUCCCUUGGCAGCACAGUUUAUUUA [JR_ExcTheophyB_Sub006] | 205 nM | 345 nM | 301 nM | 389 nM | 186 nM
AAGGUCACUACUACAGUGAUGUUGUAGGAGCAGGAUAUGCAGAAAUGCAGAAGGGCUCGCUCCAAGUGACCGAAUGAAACAUUCA [Omei KL FMN A SS A v2] | 368 nM | 430 nM | 607 nM | 611 nM | 482 nM
CCUAUCUGUUACGAUACCAGUCAAUGAUAUUUUAUCAAUGCCCUCACCGAGUGAUGUUCGGACCCUUGGCAGCGUCUGGGAUAGG [tyygpimullin] | 160 nM | 148 nM | 171 nM | 153 nM | 151 nM
AUGUUUUAUAAACUCAUGGUUUCGACAGAUACCAGCUUCGAGAGGAGCCCUUGGCAGCUGCAUGAGUGAUGUUCAUGUACGAAGA [KL-XTheoA7] | 374 nM | 356 nM | 465 nM | 415 nM | 265 nM
AUAUGCAGGAGAAGGAGCGUCGUUUCAAGUGAUGUUUGCAAGCGAGCUUACUAUAUAAGACGACAGGUAGGUCGCUCCUGCGUAA [#06 K4 Arginine B Exclusion] | 166 nM | 150 nM | 155 nM | 141 nM | 149 nM
UCCUACGAGGUAACGUGGAUAUCUCGUUGCAAGGAUAUCUGGAAACAGAGAAGGUGCAACAUUAUCAGCAGUGAUGUUGCUGACC | 215 nM | 247 nM | 276 nM | 389 nM | 329 nM

Sequence | apparent KD of K4 kissing-loop reporter (input ligand: FMN 200 uM) | apparent KD of K4 kissing-loop reporter (input ligand: arginine 13.2 mM) | apparent KD of K4 kissing-loop reporter (input ligand: none) | apparent KD of K4 kissing-loop reporter [1] | apparent KD of K4 kissing-loop reporter [2]
UGAUACCAGACUGAUACCAGCCACAGAGUCAAGACUCUGAUAAAGGUAACCAGUGAUGUUGGCCCUUGGCAGCAGUCUGGUAUCU [TheoBX 16 #SwitchBubble #StaticStem] | 193 nM | 164 nM | 166 nM | 149 nM | 156 nM
AUGGCACCUGCGGCCGCCACUCACUCCGGGCUGCUGGCCAGUGAUGUUGGUACGGCUGCCGGUUAGAGGACCGGGCAGGAGCUAA [Rienisdite] | 88.8 nM | 103 nM | 107 nM | 97.8 nM | 90.7 nM
UCAAACGAUGGAAGGAGCGCUCGUCAGUCCUGCGAGUGAUGUUCGUGGGUAAAUAGUCGCGAGCAGGUAGGUCGCCAUCUUAAGC [Bisodi] | 135 nM | 98.1 nM | 118 nM | 108 nM | 113 nM
UGUCAUUGGUCUGAUACCAGUUAGACCGAUAGGUCAAAACUGGAGUGAUGUUCCCAAAAUAACCCUUGGCAGCAGACCGAUGACU [TheoBS 3 #SwitchBubble #StaticStem] | 280 nM | 149 nM | 152 nM | 282 nM | 191 nM
UAGGUUUAAUCGGCCGCCACUAUCAGAGCGCCAGUGAUGUUGGAGUAACGAUCGUGGCGAGUUAAUAGGACCGGGAUUCAACACA [Velazaer] | 159 nM | 141 nM | 141 nM | 152 nM | 156 nM
GGUAUCUAUACAGAUACCAGUCGUACAGCACCAUUACAGGUUAGUGAUGUUAACCUGUACGACCCUUGGCAGCUGUAUUAUAAUA [#15 K4 Theophylline B Exclusion] | 94.3 nM | 88.7 nM | 86.8 nM | 91.4 nM | 85.2 nM
GGGCUGGUGCUAGGAUAUGCGAUGAAUGCUCAGGAAACCUUGAGUCCGCAGUGAUGUUGCGGCACCGCAGAAGGAGCUUAGGCUC [Esbequ] | 146 nM | 263 nM | 222 nM | 292 nM | 172 nM
UAGCUCUACAGAAGGAGCGACGUUCUUAGACAGUGAUGUUGUCUAUAGUGAAUAUAGGAACGUCAGGUAGGUCGCUGUAGAGCUA [Arg B SS t11] | 213 nM | 160 nM | 200 nM | 189 nM | 164 nM
GGUGACGACCAGAGGUGAUGUAUAGUAUCGCGAGGACCGGUACGGCCGCCACUCGUGAAGAGAAAGGAGUGAUGUUCCGUAAUGG [Kazoo C9] | 241 nM | 217 nM | 289 nM | 289 nM | 108 nM
AAGGUCACCACUACAGUGAUGUUGUGGGAGCAGGAUAUGCAGAAAUGCAGAAGGGCUCGCUCCCGGUGACCGAAUGAAACAUUCA [Omei KL FMN A SS A v5] | 1380 nM | 636 nM | 981 nM | 765 nM | 846 nM
UAAGGGUUAUGUCCUCGGUGCGAAGAGCUCCGAGGACCGGUACGGCCGCCACUCGGAAGUUCUGAGUGAGGGAGUGAUGUUCCCU [Skye_Ex_TA] | 312 nM | 291 nM | 359 nM | 315 nM | 306 nM
UUAUCACCCUAAGGAUAUAGCUAAGUGAUGUUUAGCUCGUCGCAGGGUAAACACUAGGCCCAAAGGCUAGAAGGUAGCUGGUACC [theeternabot_exclusion_KL_FMN_B_35] | 70.6 nM | 66.9 nM | 74 nM | 81.3 nM | 69.6 nM
AUGUGGAGCGACGUUUAGAGAAACCGGGAAGGAGCGCGGAUAACCGCAGGUAGGUCGCCUGGUUGCCAGUGAUGUUGGCGACGUG [Exclusion Arg A GF 25] | 87.4 nM | 222 nM | 144 nM | 96 nM | 138 nM
AAGGUUCGUGGAAGGAGCGCCCGUGCGACUCGUUCACUAAGUGAAGUCCGAGUGAUGUUCGGGCAGGUAGGUCGCCACGGGCAAA [Atonenge] | 164 nM | 133 nM | 152 nM | 153 nM | 153 nM
UUUUUAUGCAGUGAUGUUGCUAAUAUAACAGAGGAUAUGCAUUAAUGCAGAAGGCUGAAAUACUAUACUUUAAUAUAUUAAAUUU [JR_SSFMNA_Sub015] | 94.3 nM | 132 nM | 126 nM | 155 nM | 99.5 nM
CCAGCGGGCACGGCCGCCACUCUCUCGAGUGAUGUUUGCGGAGUCAGGCCGGCUCAGUACGUCACGAGGACCGGGUGCAAUUUAC [theeternabot_exclusion_KL_Trp_B_40] | 986 nM | 425 nM | 829 nM | 506 nM | 460 nM
UUUAGGAACUGAGGAUAUUCGAAGAAAUAUAGUGAUGUUAUAUAAGGAGGAGGAGGGAGGGAGGAAGGAGAAGGCAGAAGAGGAG [ExFMNB.E] | 368 nM | 243 nM | 246 nM | 330 nM | 248 nM
GUCCAUGUCCUCAUUCGUGCACUGGACACCAAGGAUAUGUUUAUGGACAGAAGGUGGUUGGGUCAGUGAUGUUGAUAUAAUUAGU [theeternabot_exclusion_KL_FMN_A_24] | 208 nM | 276 nM | 278 nM | 406 nM | 194 nM
ACGUAGUUCUAGGAUACCAGCCAAGGUCGCCAGGACAAAAGUCCUGGCGCCAGUGAUGUUGGCCCUUGGCAGCCUAGAACUACGA [Omei KL Theo B Exc B v6] | 195 nM | 176 nM | 176 nM | 174 nM | 203 nM
UGACUGGAUGGAAGGAGCGCUAAACUCCUAGUGAUGUUAGGGAUACGAGACAAAGUCUUGAAGCAGGUAGGUCGCCAUCUAGUCU [FiskerMod 10 - Jieux - Same State - Arginine B] | 170 nM | 124 nM | 144 nM | 144 nM | 138 nM
UGUGAUGUUGUGAUGUUUAGUGUUGUUGGGCAGGAUAUUGUAGAGGCGAGAAGGGCUAGUGUGAUGUAUGAGUGAUGUUUGUAGU [kkollmullin] | 127 nM | 111 nM | 246 nM | 177 nM | 186 nM
